Laboratory results published in article PMC10226596, “The ethylene-responsive transcription factor PpERF9 represses PpRAP2.4 and PpMYB114 via histone deacetylation to inhibit anthocyanin biosynthesis in pear”.

B1: ProACS1-probe (dsDNA)
DNA 1: GAAAAATAGAGGAGAAAAATGGCCGACAAAATTAGTTGTGGCTACTAGAGTCAAGAAG
DNA 2: CTTCTTGACTCTAGTAGCCACAACTAATTTTGTCGGCCATTTTTCTCCTCTATTTTTC
B2: ProMYB114-probe (dsDNA)
DNA 1: GCTTGCCGTCTTTGTCGTCTCCGGCGCCGCCATCTACATCTGCTTCCAGGTTCAAC
DNA 2: GTTGAACCTGGAAGCAGATGTAGATGGCGGCGCCGGAGACGACAAAGACGGCAAGC

Key:
PpRAP2.4 [1] = molecular target: T1, PpRAP2.4 (Pyrus (pear, 'Hongzaosu'?), UniProt A0A5N5HQM7 1-356); test: EMSA; cold competitor 50-, 100-, 200-fold; LightShift Chemiluminescent EMSA Kit (Thermo Scientific); buffer, salt, pH and temperature not stated; conditions: protein: recombinant; tags: His (pET32a); label: 3' biotin (hot probe); blunt
T1 sequence (A0A5N5HQM7 entry or part of it): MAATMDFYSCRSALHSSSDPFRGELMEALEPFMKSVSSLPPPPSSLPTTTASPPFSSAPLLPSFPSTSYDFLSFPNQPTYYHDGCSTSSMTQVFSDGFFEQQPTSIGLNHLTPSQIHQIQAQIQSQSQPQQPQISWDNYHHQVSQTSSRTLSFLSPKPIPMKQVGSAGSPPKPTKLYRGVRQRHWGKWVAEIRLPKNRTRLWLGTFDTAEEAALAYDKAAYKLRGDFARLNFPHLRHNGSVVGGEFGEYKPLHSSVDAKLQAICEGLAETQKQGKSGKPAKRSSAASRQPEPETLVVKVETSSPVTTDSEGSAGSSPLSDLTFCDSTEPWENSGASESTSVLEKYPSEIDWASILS

PpRAP2.4 [2] = molecular target: T1, PpRAP2.4; test: EMSA; 3 ug protein; cold competitor 10-, 50-, 200-fold; LightShift Chemiluminescent EMSA Kit (Thermo Scientific); buffer, salt, pH and temperature not stated; conditions: protein: recombinant; tags: His (pET32a); label: 3' biotin (hot probe); blunt

Binder | binding result (PpRAP2.4 [1]) | binding result (PpRAP2.4 [2])
B1 | binds | 
B2 |  | binds
